Measured values taken from article PMC9482650, “Quantitative fragmentomics allow affinity mapping of interactomes” (Nature Communications, 2022).

Legend:
Assay in all cases: holdup assay
Set-up in all cases: key: below the threshold = too weak to quantify, mostly under pKd 3.1 to 4
MPP2, Q14168 = molecular target: T1, MPP2, Q14168
T1 sequence (Q14168 180-250, limits assumed, looked up): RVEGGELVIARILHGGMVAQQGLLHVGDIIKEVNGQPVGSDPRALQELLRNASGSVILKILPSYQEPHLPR

FRMPD1, Q5SYB0 = molecular target: T2, FRMPD1, Q5SYB0
T2 sequence (Q5SYB0 52-145, limits assumed, looked up): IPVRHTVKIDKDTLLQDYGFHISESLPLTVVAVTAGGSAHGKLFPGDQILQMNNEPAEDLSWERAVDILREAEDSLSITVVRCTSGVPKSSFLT

GRASP, Q7Z6J2 = molecular target: GRASP, Q7Z6J2
GRIP2_7, Q9C0E4 = molecular target: GRIP2_7, Q9C0E4
IL16_3, Q14005 = molecular target: IL16_3, Q14005
MAGI2_6, Q86UL8 = molecular target: MAGI2_6, Q86UL8
APBA2_2, Q99767 = molecular target: T3, APBA2_2, Q99767
T3 sequence (Q99767 654-744, limits assumed, looked up): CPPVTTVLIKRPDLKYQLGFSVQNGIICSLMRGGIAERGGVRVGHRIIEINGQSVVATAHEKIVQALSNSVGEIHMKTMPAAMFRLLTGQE

MAGI1_1, Q96QZ7 = molecular target: MAGI1_1, Q96QZ7
MAST2, Q6P0Q8 = molecular target: MAST2, Q6P0Q8
SNTA1, Q13424 = molecular target: T4, SNTA1, Q13424
T4 sequence (Q13424 82-180, limits assumed, looked up): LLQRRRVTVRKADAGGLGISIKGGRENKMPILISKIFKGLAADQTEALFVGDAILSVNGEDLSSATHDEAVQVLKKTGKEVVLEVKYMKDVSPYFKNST

MAGI2_4, Q86UL8 = molecular target: MAGI2_4, Q86UL8
DFNB31_2, Q9P202 = molecular target: T5, DFNB31_2, Q9P202
T5 sequence (Q9P202 274-371, limits assumed, looked up): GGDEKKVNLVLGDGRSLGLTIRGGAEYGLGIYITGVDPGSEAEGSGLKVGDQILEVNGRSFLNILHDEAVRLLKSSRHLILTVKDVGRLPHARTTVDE

HTRA4, P83105 = molecular target: T6, HTRA4, P83105
T6 sequence (P83105 378-476, limits assumed, looked up): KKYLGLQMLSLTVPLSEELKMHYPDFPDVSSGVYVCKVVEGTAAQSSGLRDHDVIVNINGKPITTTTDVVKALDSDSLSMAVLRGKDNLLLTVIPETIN

DLG2_2, Q15700 = molecular target: DLG2_2, Q15700
LNX1_2, Q8TBB1 = molecular target: LNX1_2, Q8TBB1
SCRIB_1, Q14160 = molecular target: SCRIB_1, Q14160
DLG3_1, Q92796 = molecular target: T7, DLG3_1, Q92796
T7 sequence (Q92796 125-227, limits assumed, looked up): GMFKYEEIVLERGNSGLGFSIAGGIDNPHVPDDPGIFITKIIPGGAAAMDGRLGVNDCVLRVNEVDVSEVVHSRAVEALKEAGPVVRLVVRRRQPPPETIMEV

APBA1_1, Q02410 = molecular target: T8, APBA1_1, Q02410
T8 sequence (Q02410 651-752, limits assumed, looked up): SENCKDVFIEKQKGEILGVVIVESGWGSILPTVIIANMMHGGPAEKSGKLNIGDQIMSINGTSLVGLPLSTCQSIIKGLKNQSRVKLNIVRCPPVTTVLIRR

LIN7A, O14910 = molecular target: T9, LIN7A, O14910
T9 sequence (O14910 103-200, limits assumed, looked up): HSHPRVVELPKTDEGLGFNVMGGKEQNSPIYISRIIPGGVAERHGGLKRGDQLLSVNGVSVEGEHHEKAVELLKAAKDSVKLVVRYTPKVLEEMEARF

GORASP2, Q9H8Y8 = molecular target: GORASP2, Q9H8Y8
FRMPD4, Q14CM0 = molecular target: FRMPD4, Q14CM0
PARD3B_1, Q8TEW8 = molecular target: T10, PARD3B_1, Q8TEW8
T10 sequence (Q8TEW8 196-299, limits assumed, looked up): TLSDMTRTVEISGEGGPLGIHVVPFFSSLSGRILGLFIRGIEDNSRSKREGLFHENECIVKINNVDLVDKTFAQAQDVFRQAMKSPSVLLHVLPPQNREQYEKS

GRIP1_2, Q9Y3R0 = molecular target: T11, GRIP1_2, Q9Y3R0
T11 sequence (Q9Y3R0 145-248, limits assumed, looked up): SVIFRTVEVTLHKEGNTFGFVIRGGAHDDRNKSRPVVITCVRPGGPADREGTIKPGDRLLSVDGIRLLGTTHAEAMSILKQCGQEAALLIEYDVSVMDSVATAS

HTRA1, Q92743 = molecular target: HTRA1, Q92743
DFNB31_3, Q9P202 = molecular target: T12, DFNB31_3, Q9P202
T12 sequence (Q9P202 811-907, limits assumed, looked up): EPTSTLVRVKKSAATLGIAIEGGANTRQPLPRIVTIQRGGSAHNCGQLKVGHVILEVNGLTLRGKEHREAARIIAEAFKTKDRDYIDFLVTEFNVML

[1] = plain residues with an end cap or a label only (N-terminal biotin on a linker: ttds)
[2] = plain residues with an end cap or a label only (N-terminal biotin on a linker: gsgsgs; C-terminal amide)
[3] = plain residues with an end cap or a label only (N-terminal biotin on a linker: ahx)

Sequence of GRASP, Q7Z6J2 (Q7Z6J2 96-193): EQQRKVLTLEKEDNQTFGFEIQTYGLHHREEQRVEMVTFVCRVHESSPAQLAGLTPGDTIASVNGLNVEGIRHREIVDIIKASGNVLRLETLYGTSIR
Sequence of MAGI2_4, Q86UL8 (Q86UL8 772-865): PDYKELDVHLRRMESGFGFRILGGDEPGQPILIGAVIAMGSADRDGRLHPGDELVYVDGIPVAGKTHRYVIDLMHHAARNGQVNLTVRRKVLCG
Sequence of GRIP2_7, Q9C0E4 (Q9C0E4 934-1023): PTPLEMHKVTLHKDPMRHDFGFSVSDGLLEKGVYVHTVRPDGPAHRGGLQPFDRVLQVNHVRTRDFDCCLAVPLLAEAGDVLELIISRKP
Sequence of IL16_3, Q14005 (Q14005 1107-1207): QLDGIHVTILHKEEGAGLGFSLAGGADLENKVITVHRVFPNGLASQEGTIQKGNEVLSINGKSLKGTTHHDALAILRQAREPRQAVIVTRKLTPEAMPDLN
Sequence of MAST2, Q6P0Q8 (Q6P0Q8 1099-1202): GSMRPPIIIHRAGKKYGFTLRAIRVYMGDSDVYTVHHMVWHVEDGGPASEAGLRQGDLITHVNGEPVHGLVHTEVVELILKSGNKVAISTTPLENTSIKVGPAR
Sequence of DLG2_2, Q15700 (Q15700 189-283): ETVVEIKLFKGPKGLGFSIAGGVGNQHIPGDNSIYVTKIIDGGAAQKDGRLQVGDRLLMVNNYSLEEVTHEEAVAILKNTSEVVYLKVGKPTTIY
Sequence of SCRIB_1, Q14160 (Q14160 718-814): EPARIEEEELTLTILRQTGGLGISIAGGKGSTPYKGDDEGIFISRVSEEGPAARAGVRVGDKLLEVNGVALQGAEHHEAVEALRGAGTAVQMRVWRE
Sequence of MAGI1_1, Q96QZ7 (Q96QZ7 1-106): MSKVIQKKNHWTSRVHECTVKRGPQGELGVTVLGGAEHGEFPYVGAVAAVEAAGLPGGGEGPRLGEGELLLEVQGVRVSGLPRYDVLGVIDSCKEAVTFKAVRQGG
Sequence of HTRA1, Q92743 (Q92743 360-477): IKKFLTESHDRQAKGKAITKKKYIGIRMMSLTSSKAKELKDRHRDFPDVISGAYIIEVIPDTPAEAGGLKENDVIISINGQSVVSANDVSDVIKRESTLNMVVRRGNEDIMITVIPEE
Sequence of MAGI2_6, Q86UL8 (Q86UL8 1141-1229): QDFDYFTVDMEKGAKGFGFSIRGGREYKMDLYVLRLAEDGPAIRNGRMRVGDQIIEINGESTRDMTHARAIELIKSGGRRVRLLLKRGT
Sequence of LNX1_2, Q8TBB1 (Q8TBB1 371-470): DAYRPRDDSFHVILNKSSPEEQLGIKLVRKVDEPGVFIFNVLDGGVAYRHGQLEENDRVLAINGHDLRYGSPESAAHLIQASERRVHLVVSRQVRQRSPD
Sequence of FRMPD4, Q14CM0 (Q14CM0 67-160): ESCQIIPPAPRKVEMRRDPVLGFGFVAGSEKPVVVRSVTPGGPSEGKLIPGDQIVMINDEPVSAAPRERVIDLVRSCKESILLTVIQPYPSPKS

RPLPRKVSQL [DOCK4, Q8N1I0]
pKd (MPP2, Q14168; [1]): below the threshold
pKd (FRMPD1, Q5SYB0; [1]): below the threshold
pKd (GRASP, Q7Z6J2; [1]): 3.93
pKd (GRIP2_7, Q9C0E4; [1]): below the threshold
pKd (IL16_3, Q14005; [1]): below the threshold
pKd (MAGI2_6, Q86UL8; [1]): below the threshold
pKd (APBA2_2, Q99767; [1]): below the threshold
pKd (MAGI1_1, Q96QZ7; [1]): below the threshold
pKd (MAST2, Q6P0Q8; [1]): 4.58
pKd (SNTA1, Q13424; [1]): below the threshold
pKd (MAGI2_4, Q86UL8; [1]): below the threshold
pKd (DFNB31_2, Q9P202; [1]): below the threshold
pKd (HTRA4, P83105; [1]): below the threshold
pKd (DLG2_2, Q15700; [1]): below the threshold
pKd (LNX1_2, Q8TBB1; [1]): below the threshold
pKd (SCRIB_1, Q14160; [1]): below the threshold
pKd (DLG3_1, Q92796; [1]): below the threshold
pKd (APBA1_1, Q02410; [1]): below the threshold
pKd (LIN7A, O14910; [1]): below the threshold
pKd (GORASP2, Q9H8Y8; [1]): 4.85
pKd (FRMPD4, Q14CM0; [1]): below the threshold
pKd (PARD3B_1, Q8TEW8; [1]): below the threshold
pKd (GRIP1_2, Q9Y3R0; [1]): below the threshold
pKd (HTRA1, Q92743; [1]): below the threshold
pKd (DFNB31_3, Q9P202; [1]): below the threshold

YGIVQETTFDLGGDIH [MLLT4_int, P55196]
pKd (MPP2, Q14168; [2]): below the threshold
pKd (FRMPD1, Q5SYB0; [2]): below the threshold
pKd (GRASP, Q7Z6J2; [2]): below the threshold
pKd (GRIP2_7, Q9C0E4; [2]): below the threshold
pKd (IL16_3, Q14005; [2]): below the threshold
pKd (MAGI2_6, Q86UL8; [2]): below the threshold
pKd (APBA2_2, Q99767; [2]): below the threshold
pKd (MAGI1_1, Q96QZ7; [2]): below the threshold
pKd (MAST2, Q6P0Q8; [2]): 4.01
pKd (SNTA1, Q13424; [2]): below the threshold
pKd (MAGI2_4, Q86UL8; [2]): below the threshold
pKd (DFNB31_2, Q9P202; [2]): below the threshold
pKd (HTRA4, P83105; [2]): below the threshold
pKd (DLG2_2, Q15700; [2]): below the threshold
pKd (LNX1_2, Q8TBB1; [2]): below the threshold
pKd (SCRIB_1, Q14160; [2]): 4.3
pKd (DLG3_1, Q92796; [2]): below the threshold
pKd (APBA1_1, Q02410; [2]): below the threshold
pKd (LIN7A, O14910; [2]): below the threshold
pKd (GORASP2, Q9H8Y8; [2]): below the threshold
pKd (FRMPD4, Q14CM0; [2]): below the threshold
pKd (PARD3B_1, Q8TEW8; [2]): below the threshold
pKd (GRIP1_2, Q9Y3R0; [2]): below the threshold
pKd (HTRA1, Q92743; [2]): below the threshold
pKd (DFNB31_3, Q9P202; [2]): 3.83

RRRKRKRTYL [HPV49-L2, P36762]
pKd (MPP2, Q14168; [3]): 3.74
pKd (FRMPD1, Q5SYB0; [3]): below the threshold
pKd (GRASP, Q7Z6J2; [3]): 4.37
pKd (GRIP2_7, Q9C0E4; [3]): 3.68
pKd (IL16_3, Q14005; [3]): below the threshold
pKd (MAGI2_6, Q86UL8; [3]): below the threshold
pKd (APBA2_2, Q99767; [3]): below the threshold
pKd (MAGI1_1, Q96QZ7; [3]): below the threshold
pKd (MAST2, Q6P0Q8; [3]): 4.22
pKd (SNTA1, Q13424; [3]): 3.69
pKd (MAGI2_4, Q86UL8; [3]): below the threshold
pKd (DFNB31_2, Q9P202; [3]): below the threshold
pKd (HTRA4, P83105; [3]): 3.66
pKd (DLG2_2, Q15700; [3]): 4.58
pKd (LNX1_2, Q8TBB1; [3]): below the threshold
pKd (SCRIB_1, Q14160; [3]): 3.67
pKd (DLG3_1, Q92796; [3]): below the threshold
pKd (APBA1_1, Q02410; [3]): 3.71
pKd (LIN7A, O14910; [3]): below the threshold
pKd (GORASP2, Q9H8Y8; [3]): 4.81
pKd (FRMPD4, Q14CM0; [3]): 3.53
pKd (PARD3B_1, Q8TEW8; [3]): 3.72
pKd (GRIP1_2, Q9Y3R0; [3]): below the threshold
pKd (HTRA1, Q92743; [3]): 3.99
pKd (DFNB31_3, Q9P202; [3]): 4.25

NRKREIFSNF [NHERF2, Q15599]
pKd (MPP2, Q14168; [3]): below the threshold
pKd (FRMPD1, Q5SYB0; [3]): below the threshold
pKd (GRASP, Q7Z6J2; [3]): below the threshold
pKd (GRIP2_7, Q9C0E4; [3]): below the threshold
pKd (IL16_3, Q14005; [3]): below the threshold
pKd (MAGI2_6, Q86UL8; [3]): 3.55
pKd (APBA2_2, Q99767; [3]): below the threshold
pKd (MAGI1_1, Q96QZ7; [3]): below the threshold
pKd (MAST2, Q6P0Q8; [3]): 3.89
pKd (SNTA1, Q13424; [3]): below the threshold
pKd (MAGI2_4, Q86UL8; [3]): below the threshold
pKd (DFNB31_2, Q9P202; [3]): below the threshold
pKd (HTRA4, P83105; [3]): below the threshold
pKd (DLG2_2, Q15700; [3]): below the threshold
pKd (LNX1_2, Q8TBB1; [3]): below the threshold
pKd (SCRIB_1, Q14160; [3]): below the threshold
pKd (DLG3_1, Q92796; [3]): below the threshold
pKd (APBA1_1, Q02410; [3]): below the threshold
pKd (LIN7A, O14910; [3]): below the threshold
pKd (GORASP2, Q9H8Y8; [3]): below the threshold
pKd (FRMPD4, Q14CM0; [3]): below the threshold
pKd (PARD3B_1, Q8TEW8; [3]): below the threshold
pKd (GRIP1_2, Q9Y3R0; [3]): below the threshold
pKd (HTRA1, Q92743; [3]): below the threshold
pKd (DFNB31_3, Q9P202; [3]): below the threshold

RAVEEEESRF [PSCDBP, O60759]
pKd (MPP2, Q14168; [3]): below the threshold
pKd (FRMPD1, Q5SYB0; [3]): below the threshold
pKd (GRASP, Q7Z6J2; [3]): below the threshold
pKd (GRIP2_7, Q9C0E4; [3]): below the threshold
pKd (IL16_3, Q14005; [3]): below the threshold
pKd (MAGI2_6, Q86UL8; [3]): below the threshold
pKd (APBA2_2, Q99767; [3]): below the threshold
pKd (MAGI1_1, Q96QZ7; [3]): below the threshold
pKd (MAST2, Q6P0Q8; [3]): 4.45
pKd (SNTA1, Q13424; [3]): below the threshold
pKd (MAGI2_4, Q86UL8; [3]): below the threshold
pKd (DFNB31_2, Q9P202; [3]): below the threshold
pKd (HTRA4, P83105; [3]): below the threshold
pKd (DLG2_2, Q15700; [3]): below the threshold
pKd (LNX1_2, Q8TBB1; [3]): below the threshold
pKd (SCRIB_1, Q14160; [3]): below the threshold
pKd (DLG3_1, Q92796; [3]): below the threshold
pKd (APBA1_1, Q02410; [3]): below the threshold
pKd (LIN7A, O14910; [3]): below the threshold
pKd (GORASP2, Q9H8Y8; [3]): below the threshold
pKd (FRMPD4, Q14CM0; [3]): below the threshold
pKd (PARD3B_1, Q8TEW8; [3]): 4.06
pKd (GRIP1_2, Q9Y3R0; [3]): below the threshold
pKd (HTRA1, Q92743; [3]): below the threshold
pKd (DFNB31_3, Q9P202; [3]): below the threshold
